Measurements taken from patent US20110256180A1 (CHILDREN S HOSPITAL AND RESEARCH CENTER AT OAKLAND, published 2011).

What was measured:
[1] = molecular target: human complement factor H (human) (UniProt P08603); experiment: ELISA, vs respective wildtype fHbp
[2] = molecular target: T1, human complement factor H (human, UniProt P08603 19-1231); experiment: ELISA, fHbp on plate
T1 construct: also called human fH; fH

[3] = molecular target: T1, human complement factor H; experiment: ELISA, vs respective wildtype fHbp

T1 sequence (P08603 19-1231 limits assumed): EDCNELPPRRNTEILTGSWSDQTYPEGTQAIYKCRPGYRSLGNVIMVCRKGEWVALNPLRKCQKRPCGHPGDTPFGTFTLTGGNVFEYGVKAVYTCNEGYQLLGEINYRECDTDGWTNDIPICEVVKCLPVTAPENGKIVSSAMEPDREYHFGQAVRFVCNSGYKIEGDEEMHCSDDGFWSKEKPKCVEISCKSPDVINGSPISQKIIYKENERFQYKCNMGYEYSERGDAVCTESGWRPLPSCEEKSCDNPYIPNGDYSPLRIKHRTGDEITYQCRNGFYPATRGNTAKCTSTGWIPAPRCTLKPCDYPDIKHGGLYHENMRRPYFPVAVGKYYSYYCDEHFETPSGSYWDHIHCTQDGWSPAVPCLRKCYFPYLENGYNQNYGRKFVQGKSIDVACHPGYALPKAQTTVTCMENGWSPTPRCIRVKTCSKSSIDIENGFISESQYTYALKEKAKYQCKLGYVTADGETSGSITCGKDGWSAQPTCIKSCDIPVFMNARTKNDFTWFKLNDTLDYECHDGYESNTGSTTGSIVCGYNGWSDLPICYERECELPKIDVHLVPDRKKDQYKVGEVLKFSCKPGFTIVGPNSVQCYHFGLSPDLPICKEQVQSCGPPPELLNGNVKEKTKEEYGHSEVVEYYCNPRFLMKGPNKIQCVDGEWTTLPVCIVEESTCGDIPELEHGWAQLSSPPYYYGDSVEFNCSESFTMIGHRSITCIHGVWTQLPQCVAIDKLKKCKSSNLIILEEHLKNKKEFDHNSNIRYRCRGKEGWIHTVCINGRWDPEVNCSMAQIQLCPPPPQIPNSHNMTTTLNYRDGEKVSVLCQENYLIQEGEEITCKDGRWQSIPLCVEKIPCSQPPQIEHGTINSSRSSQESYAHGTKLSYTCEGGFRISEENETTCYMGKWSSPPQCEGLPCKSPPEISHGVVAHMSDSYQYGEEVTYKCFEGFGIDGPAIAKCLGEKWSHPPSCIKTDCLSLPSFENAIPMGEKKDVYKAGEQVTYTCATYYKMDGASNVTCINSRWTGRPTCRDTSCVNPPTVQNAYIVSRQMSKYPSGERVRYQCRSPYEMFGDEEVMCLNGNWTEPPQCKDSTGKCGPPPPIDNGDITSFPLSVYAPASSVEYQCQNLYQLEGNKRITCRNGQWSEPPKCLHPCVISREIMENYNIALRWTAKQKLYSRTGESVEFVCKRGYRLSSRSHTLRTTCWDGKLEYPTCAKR
Chain of human complement factor H (human) (P08603 19-1231 limits assumed): as above

Molecule | binding result [2] | Fold-Decrease in fH binding [3] | other results
fHbp ID 74 R41S mutant |  |  | Fold-Decrease in fH binding [1]: > 50 fold
fHbp ID 9 R41S mutant |  |  | Fold-Decrease in fH binding [1]: > 50 fold
fHbp chimera I R41S mutant (other, Recombinant; also called R41S mutant of the fHbp chimera I) CSSGGGGVAADIGAGLADALTAPLDHKDKGLQSLTLDQSVSKNEKLKLAAQGAEKTYGNGDSLNTGKLKNDKVSRFDFIRQIEVDGQLITLESGEFQVYKQSHSALTAFQTEQIQDSEHSGKMVAKRQFRIGDIAGEHTAFNQLPDGKAEYHGKAFSSDDAGGKLTYTIDFAAKQGHGKIEHLKTPEQNVELAAAELKADEKSHAVILGDTRYGSEEKGTYHLALFGDRAQEIAGSATVKIGEKVHEIGIAGKQ | no binding |  | 
fHbp ID 14 (natural variant, variant group 1, modular group I) (other, Recombinant) CSSGGGGVAADIGAGLADALTAPLDHKDKSLQSLTLDQSVRKNEKLKLAAQGAEKTYGNGDSLNTGKLKNDKVSRFDFIRQIEVDGQLITLESGEFQVYKQSHSALTALQTEQEQDPEHSGKMVAKRRFKIGDIAGEHTSFDKLPKDVMATYRGTAFGSDDAGGKLTYTIDFAAKQGHGKIEHLKSPELNVELATAYIKPDEKHHAVISGSVLYNQDEKGSYSLGIFGGQAQEVAGSAEVETANGIHHIGLAAKQ | binds |  | 
fHbp ID 15 E241K mutant (other) CSSGGGGSGGGGVAADIGAGLADALTAPLDHKDKGLKSLTLEDSISQNGTLTLSAQGAERTFKAGDKDNSLNTGKLKNDKISRFDFIRQIEVDGQLITLESGEFQVYKQSHSALTALQTEQVQDSEHSGKMVAKRQFRIGDIVGEHTSFGKLPKDVMATYRGTAFGSDDAGGKLTYTIDFAAKQGHGKIEHLKSPELNVDLAAADIKPDEKHHAVISGSVLYNQAEKGSYSLGIFGGQAQEVAGSAEVKTANGIRHIGLAAKQ |  | 0 fold | fold effect on fH binding relative to wildtype fHbp [2]: < 2 fold
fHbp ID 22 A235G mutant (other) CSSGGGGVAADIGAGLADALTAPLDHKDKSLQSLTLDQSVRKNEKLKLAAQGAEKTYGNGDSLNTGKLKNDKVSRFDFIRQIEVDGQLITLESGEFQIYKQDHSAVVALQIEKINNPDKIDSLINQRSFLVSGLGGEHTAFNQLPSGKAEYHGKAFSSDDPNGRLHYSIDFTKKQGYGRIEHLKTPEQNVELASAELKADEKSHAVILGDTRYGGEEKGTYHLALFGDRAQEIGGSATVKIREKVHEIGIAGKQ |  | 0 fold | 
fHbp ID 22 E202A mutant (other) CSSGGGGVAADIGAGLADALTAPLDHKDKSLQSLTLDQSVRKNEKLKLAAQGAEKTYGNGDSLNTGKLKNDKVSRFDFIRQIEVDGQLITLESGEFQIYKQDHSAVVALQIEKINNPDKIDSLINQRSFLVSGLGGEHTAFNQLPSGKAEYHGKAFSSDDPNGRLHYSIDFTKKQGYGRIEHLKTPEQNVELASAELKADAKSHAVILGDTRYGGEEKGTYHLALFGDRAQEIAGSATVKIREKVHEIGIAGKQ |  | 0 fold | 
fHbp ID 22 R41S mutant (other, also called R41S (ID 22)) CSSGGGGVAADIGAGLADALTAPLDHKDKSLQSLTLDQSVSKNEKLKLAAQGAEKTYGNGDSLNTGKLKNDKVSRFDFIRQIEVDGQLITLESGEFQIYKQDHSAVVALQIEKINNPDKIDSLINQRSFLVSGLGGEHTAFNQLPSGKAEYHGKAFSSDDPNGRLHYSIDFTKKQGYGRIEHLKTPEQNVELASAELKADEKSHAVILGDTRYGGEEKGTYHLALFGDRAQEIAGSATVKIREKVHEIGIAGKQ |  | 0 fold | fold reduction in fH binding vs wildtype fHbp ID 22 [2]: < 4 fold
fHbp ID 22 D201A mutant (other, also called D201A (ID 22)) CSSGGGGVAADIGAGLADALTAPLDHKDKSLQSLTLDQSVRKNEKLKLAAQGAEKTYGNGDSLNTGKLKNDKVSRFDFIRQIEVDGQLITLESGEFQIYKQDHSAVVALQIEKINNPDKIDSLINQRSFLVSGLGGEHTAFNQLPSGKAEYHGKAFSSDDPNGRLHYSIDFTKKQGYGRIEHLKTPEQNVELASAELKAAEKSHAVILGDTRYGGEEKGTYHLALFGDRAQEIAGSATVKIREKVHEIGIAGKQ |  | 0 fold | 
fHbp ID 22 Q126A mutant (other) CSSGGGGVAADIGAGLADALTAPLDHKDKSLQSLTLDQSVRKNEKLKLAAQGAEKTYGNGDSLNTGKLKNDKVSRFDFIRQIEVDGQLITLESGEFQIYKQDHSAVVALQIEKINNPDKIDSLINARSFLVSGLGGEHTAFNQLPSGKAEYHGKAFSSDDPNGRLHYSIDFTKKQGYGRIEHLKTPEQNVELASAELKADEKSHAVILGDTRYGGEEKGTYHLALFGDRAQEIAGSATVKIREKVHEIGIAGKQ |  | 0 fold | fold reduction in fH binding vs wildtype fHbp ID 22 [2]: < 4 fold
fHbp ID 22 Q38A mutant (other) CSSGGGGVAADIGAGLADALTAPLDHKDKSLQSLTLDASVRKNEKLKLAAQGAEKTYGNGDSLNTGKLKNDKVSRFDFIRQIEVDGQLITLESGEFQIYKQDHSAVVALQIEKINNPDKIDSLINQRSFLVSGLGGEHTAFNQLPSGKAEYHGKAFSSDDPNGRLHYSIDFTKKQGYGRIEHLKTPEQNVELASAELKADEKSHAVILGDTRYGGEEKGTYHLALFGDRAQEIAGSATVKIREKVHEIGIAGKQ |  | 0 fold | fold reduction in fH binding vs wildtype fHbp ID 22 [2]: < 4 fold
fHbp ID 77 D121A mutant (other) CSSGGGGVAADIGARLADALTAPLDHKDKSLQSLTLDQSVRKNEKLKLAAQGAEKTYGNGDSLNTGKLKNDKVSRFDFIRQIEVDGQLITLESGEFQIYKQDHSAVVALQIEKINNPDKIASLINQRSFLVSGLGGEHTAFNQLPDGKAEYHGKAFSSDDAGGKLTYTIDFAAKQGHGKIEHLKTPEQNVELAAAELKADEKSHAVILGDTRYGSEEKGTYHLALFGDRAQEIAGSATVKIGEKVHEIGIAGKQ |  | 0 fold | fold decrease in fH binding compared with wildtype fHbp ID 77 [2]: ~4 fold
fHbp ID 77 K113A mutant (other) CSSGGGGVAADIGARLADALTAPLDHKDKSLQSLTLDQSVRKNEKLKLAAQGAEKTYGNGDSLNTGKLKNDKVSRFDFIRQIEVDGQLITLESGEFQIYKQDHSAVVALQIEAINNPDKIDSLINQRSFLVSGLGGEHTAFNQLPDGKAEYHGKAFSSDDAGGKLTYTIDFAAKQGHGKIEHLKTPEQNVELAAAELKADEKSHAVILGDTRYGSEEKGTYHLALFGDRAQEIAGSATVKIGEKVHEIGIAGKQ |  | 0 fold | 
fHbp ID 77 K113A/D121A double mutant (other) CSSGGGGVAADIGARLADALTAPLDHKDKSLQSLTLDQSVRKNEKLKLAAQGAEKTYGNGDSLNTGKLKNDKVSRFDFIRQIEVDGQLITLESGEFQIYKQDHSAVVALQIEAINNPDKIASLINQRSFLVSGLGGEHTAFNQLPDGKAEYHGKAFSSDDAGGKLTYTIDFAAKQGHGKIEHLKTPEQNVELAAAELKADEKSHAVILGDTRYGSEEKGTYHLALFGDRAQEIAGSATVKIGEKVHEIGIAGKQ |  |  | fold decreased binding of fH [2]: ~10 fold
fHbp ID 77 K119A mutant (other) CSSGGGGVAADIGARLADALTAPLDHKDKSLQSLTLDQSVRKNEKLKLAAQGAEKTYGNGDSLNTGKLKNDKVSRFDFIRQIEVDGQLITLESGEFQIYKQDHSAVVALQIEKINNPDAIDSLINQRSFLVSGLGGEHTAFNQLPDGKAEYHGKAFSSDDAGGKLTYTIDFAAKQGHGKIEHLKTPEQNVELAAAELKADEKSHAVILGDTRYGSEEKGTYHLALFGDRAQEIAGSATVKIGEKVHEIGIAGKQ |  | 0 fold | fold increase in fH binding compared to wildtype fHbp ID 77 [2]: ~4 fold
fHbp ID 77 R41S mutant (other, also called R41S (ID 77)) CSSGGGGVAADIGARLADALTAPLDHKDKSLQSLTLDQSVSKNEKLKLAAQGAEKTYGNGDSLNTGKLKNDKVSRFDFIRQIEVDGQLITLESGEFQIYKQDHSAVVALQIEKINNPDKIDSLINQRSFLVSGLGGEHTAFNQLPDGKAEYHGKAFSSDDAGGKLTYTIDFAAKQGHGKIEHLKTPEQNVELAAAELKADEKSHAVILGDTRYGSEEKGTYHLALFGDRAQEIAGSATVKIGEKVHEIGIAGKQ |  | 0 fold | 
fHbp ID 28, wild-type (strain M1239, variant group 3, modular group II) (other, Recombinant; also called Pep28; peptide 28) CSSGGGGSGGGGVAADIGTGLADALTAPLDHKDKGLKSLTLEDSIPQNGTLTLSAQGAEKTFKAGDKDNSLNTGKLKNDKISRFDFVQKIEVDGQTITLASGEFQIYKQNHSAVVALQIEKINNPDKTDSLINQRSFLVSGLGGEHTAFNQLPGGKAEYHGKAFSSDDPNGRLHYSIDFTKKQGYGRIEHLKTLEQNVELAAAELKADEKSHAVILGDTRYGSEEKGTYHLALFGDRAQEIAGSATVKIGEKVHEIGIAGKQ | binds |  | 
fHbp ID 28 E218A mutant (other, also called E218A (ID 28)) CSSGGGGSGGGGVAADIGTGLADALTAPLDHKDKGLKSLTLEDSIPQNGTLTLSAQGAEKTFKAGDKDNSLNTGKLKNDKISRFDFVQKIEVDGQTITLASGEFQIYKQNHSAVVALQIEKINNPDKTDSLINQRSFLVSGLGGEHTAFNQLPGGKAEYHGKAFSSDDPNGRLHYSIDFTKKQGYGRIEHLKTLEQNVELAAAELKADEKSHAVILGDTRYGSEAKGTYHLALFGDRAQEIAGSATVKIGEKVHEIGIAGKQ | binds |  | 
fHbp ID 28 E197A mutant (other) CSSGGGGSGGGGVAADIGTGLADALTAPLDHKDKGLKSLTLEDSIPQNGTLTLSAQGAEKTFKAGDKDNSLNTGKLKNDKISRFDFVQKIEVDGQTITLASGEFQIYKQNHSAVVALQIEKINNPDKTDSLINQRSFLVSGLGGEHTAFNQLPGGKAEYHGKAFSSDDPNGRLHYSIDFTKKQGYGRIEHLKTLEQNVELAAAALKADEKSHAVILGDTRYGSEEKGTYHLALFGDRAQEIAGSATVKIGEKVHEIGIAGKQ | binds |  | 
fHbp ID 28 K245A mutant (other) CSSGGGGSGGGGVAADIGTGLADALTAPLDHKDKGLKSLTLEDSIPQNGTLTLSAQGAEKTFKAGDKDNSLNTGKLKNDKISRFDFVQKIEVDGQTITLASGEFQIYKQNHSAVVALQIEKINNPDKTDSLINQRSFLVSGLGGEHTAFNQLPGGKAEYHGKAFSSDDPNGRLHYSIDFTKKQGYGRIEHLKTLEQNVELAAAELKADEKSHAVILGDTRYGSEEKGTYHLALFGDRAQEIAGSATVKIGEAVHEIGIAGKQ | binds |  | 
fHbp ID 28 D201A mutant (other, also called D201A (ID 28)) CSSGGGGSGGGGVAADIGTGLADALTAPLDHKDKGLKSLTLEDSIPQNGTLTLSAQGAEKTFKAGDKDNSLNTGKLKNDKISRFDFVQKIEVDGQTITLASGEFQIYKQNHSAVVALQIEKINNPDKTDSLINQRSFLVSGLGGEHTAFNQLPGGKAEYHGKAFSSDDPNGRLHYSIDFTKKQGYGRIEHLKTLEQNVELAAAELKAAEKSHAVILGDTRYGSEEKGTYHLALFGDRAQEIAGSATVKIGEKVHEIGIAGKQ | binds |  | 
